Test results: patent US20180291096A1 (Janssen / Centocor, published 2018)
Values belong to the binder of their own block, whether it stands above or below them.

Molecular target: T1, recombinant human IL-23 (hrIL-23), produced at Centocor (human, UniProt P29460 23-328)
T1 sequence 1: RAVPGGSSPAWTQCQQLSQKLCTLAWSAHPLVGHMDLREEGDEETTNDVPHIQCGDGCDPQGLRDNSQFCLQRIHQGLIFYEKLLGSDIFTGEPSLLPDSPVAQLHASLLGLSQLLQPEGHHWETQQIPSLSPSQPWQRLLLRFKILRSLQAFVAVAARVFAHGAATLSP
T1 sequence 2: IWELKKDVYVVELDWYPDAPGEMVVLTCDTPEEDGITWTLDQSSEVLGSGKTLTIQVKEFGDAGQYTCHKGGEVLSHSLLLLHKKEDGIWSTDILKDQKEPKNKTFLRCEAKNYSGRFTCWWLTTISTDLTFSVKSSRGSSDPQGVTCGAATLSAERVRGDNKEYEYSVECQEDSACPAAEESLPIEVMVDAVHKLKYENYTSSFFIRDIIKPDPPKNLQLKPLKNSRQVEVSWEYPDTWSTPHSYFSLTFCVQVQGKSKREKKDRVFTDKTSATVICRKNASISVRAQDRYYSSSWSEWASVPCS
Experiment: cell-based or functional assay

B1: MOR05054 mAb (antibody, human IgG1, V domains shown)
VH: QVELVESGGGLVQPGGSLRLSCAASGFTFSSFGMSWVRQAPGKGLEWVSGIEHKYLSYATLYAASVKGRFTISRDNSKNTLYLQMNSLRAEDTAVYYCARYWGTPYLMQFDNWGQGTLVTVSS
VL: DIALTQPASVSGSPGQSITISCTGTSSDVGGYNSVSWYQQHPGKAPKLMIYSVSSRPSGVSNRFSGSKSGNTASLTISGLQAEDEADYYCSSYDTNKPLVVFGGGTKLTVL
IC50, inhibition of IL-17 production: 0.00323 µg/mL

B2: MOR05052 mAb (antibody, human IgG1, V domains shown)
VH: QVELVESGGGLVQPGGSLRLSCAASGFTFSSFGMSWVRQAPGKGLEWVSSIEHKYLSYTTFYAASVKGRFTISRDNSKNTLYLQMNSLRAEDTAVYYCARYWGTPYLMQFDNWGQGTLVTVSS
VL: DIALTQPASVSGSPGQSITISCTGTSSDVGGYNSVSWYQQHPGKAPKLMIYSVSSRPSGVSNRFSGSKSGNTASLTISGLQAEDEADYYCSSYDTNKPLVVFGGGTKLTVL
IC50, inhibition of IL-17 production: 0.0178 µg/mL

B3: MOR05047 mAb (antibody, human IgG1, V domains shown)
VH: QVELVESGGGLVQPGGSLRLSCAASGFTFSSFGMSWVRQAPGKGLEWVSNIEHKYLGYATSYAASVKGRFTISRDNSKNTLYLQMNSLRAEDTAVYYCARYWGTPYLMQFDNWGQGTLVTVSS
VL: DIALTQPASVSGSPGQSITISCTGTSSDVGGYNSVSWYQQHPGKAPKLMIYSVSSRPSGVSNRFSGSKSGNTASLTISGLQAEDEADYYCSSYDTNKPLVVFGGGTKLTVL
IC50, inhibition of IL-17 production: 0.0234 µg/mL

B4: MOR05048 mAb (antibody, human IgG1, V domains shown)
VH: QVELVESGGGLVQPGGSLRLSCAASGFTFSSFGMSWVRQAPGKGLEWVSNIEHKFMGYTTYYAAGVKGRFTISRDNSKNTLYLQMNSLRAEDTAVYYCARYWGTPYLMQFDNWGQGTLVTVSS
VL: DIALTQPASVSGSPGQSITISCTGTSSDVGGYNSVSWYQQHPGKAPKLMIYSVSSRPSGVSNRFSGSKSGNTASLTISGLQAEDEADYYCSSYDTNKPLVVFGGGTKLTVL
IC50, inhibition of IL-17 production: 0.0162 µg/mL

B6: MOR05053 mAb (antibody, human IgG1, V domains shown)
VH: QVELVESGGGLVQPGGSLRLSCAASGFTFSSFGMSWVRQAPGKGLEWVSNIEHKYTSYTTYYAASVKGRFTISRDNSKNTLYLQMNSLRAEDTAVYYCARYWGTPYLMQFDNWGQGTLVTVSS
VL: DIALTQPASVSGSPGQSITISCTGTSSDVGGYNSVSWYQQHPGKAPKLMIYSVSSRPSGVSNRFSGSKSGNTASLTISGLQAEDEADYYCSSYDTNKPLVVFGGGTKLTVL
IC50, inhibition of IL-17 production: 0.00493 µg/mL

B7: MOR04649 mAb (antibody, human IgG1, V domains shown)
VH: QVELVQSGAEVKKPGESLKISCKGSGYSFSNYWIGWVRQMPGKGLEWMGIIDPSNSYTNYSPSFQGQVTISADKSISTAYLQWSSLKASDTAMYYCARWYYKPFDVWGQGTLVTVSS
VL: DIVLTQPPSVSGAPGQRVTISCTGSSSNIGSGYDVHWYQQLPGTAPKLLIYGNSKRPSGVPDRFSGSKSGTSASLAITGLQSEDEADYYCSSWTPSSVVFGGGTKLTVL
IC50, inhibition of IL-17 production: 0.276 µg/mL

B11: MOR05043 mAb (antibody, human IgG1, V domains shown)
VH: QVELVQSGAEVKKPGESLKISCKGSGYSFSNYWIGWVRQMPGKGLEWMGFISPDGSHTWYSPSFQGQVTISADKSISTAYLQWSSLKASDTAMYYCARWYYKPFDVWGQGTLVTVSS
VL: DIVLTQPPSVSGAPGQRVTISCTGSSSNIGSGYDVHWYQQLPGTAPKLLIYGNSKRPSGVPDRFSGSKSGTSASLAITGLQSEDEADYYCSSWTPSSVVFGGGTKLTVL
IC50, inhibition of IL-17 production: 0.0144 µg/mL

B15: MOR05040 mAb (antibody, human IgG1, V domains shown)
VH: QVELVQSGAEVKKPGSSVKVSCKASGGTFSSNYISWVRQAPGQGLEWMGISPGTGINAYYAQKFQGRVTITADESTSTAYMELSSLRSEDTAVYYCARSKKGMYGGWTYPLMMFDLWGQGTLVTVSS
VL: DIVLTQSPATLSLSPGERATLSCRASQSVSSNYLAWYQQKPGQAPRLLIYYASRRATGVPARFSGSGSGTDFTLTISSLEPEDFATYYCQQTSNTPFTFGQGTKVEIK
IC50, inhibition of IL-17 production: 0.00264 µg/mL

Now from value to binder:

IC50, inhibition of IL-17 production: 0.0277 µg/mL
B5: MOR05050 mAb (antibody, human IgG1, V domains shown)
VH: QVELVESGGGLVQPGGSLRLSCAASGFTFSSFGMSWVRQAPGKGLEWVSSIEHKYTGYTTYYAAPVKGRFTISRDNSKNTLYLQMNSLRAEDTAVYYCARYWGTPYLMQFDNWGQGTLVTVSS
VL: DIALTQPASVSGSPGQSITISCTGTSSDVGGYNSVSWYQQHPGKAPKLMIYSVSSRPSGVSNRFSGSKSGNTASLTISGLQAEDEADYYCSSYDTNKPLVVFGGGTKLTVL

IC50, inhibition of IL-17 production: 0.00285 µg/mL
B8: MOR05058 mAb (antibody, human IgG1, V domains shown)
VH: QVELVQSGAEVKKPGESLKISCKGSGYSFSNYWIGWVRQMPGKGLEWMGIIDPSNSYTNYSPSFQGQVTISADKSISTAYLQWSSLKASDTAMYYCARWYYKPFDVWGQGTLVTVSS
VL: DIVLTQPPSVSGAPGQRVTISCTGSSSNIGSGYDVHWYQQLPGTAPKLLIYGNSKRPSGVPDRFSGSKSGTSASLAITGLQSEDEADYYCSSWTDTPNMIVFGGGTKLTVL

IC50, inhibition of IL-17 production: 0.0106 µg/mL
B9: MOR05059 mAb (antibody, human IgG1, V domains shown)
VH: QVELVQSGAEVKKPGESLKISCKGSGYSFSNYWIGWVRQMPGKGLEWMGIIDPSNSYTNYSPSFQGQVTISADKSISTAYLQWSSLKASDTAMYYCARWYYKPFDVWGQGTLVTVSS
VL: DIVLTQPPSVSGAPGQRVTISCTGSSSNIGSGYDVHWYQQLPGTAPKLLIYGNSKRPSGVPDRFSGSKSGTSASLAITGLQSEDEADYYCASWTDGLSLVVFGGGTKLTVL

IC50, inhibition of IL-17 production: 0.00301 µg/mL
B10: MOR05041 mAb (antibody, human IgG1, V domains shown)
VH: QVELVQSGAEVKKPGESLKISCKGSGYSFSNYWIGWVRQMPGKGLEWMGIISPTGSVTWYSPSFQGQVTISADKSISTAYLQWSSLKASDTAMYYCARWYYKPFDVWGQGTLVTVSS
VL: DIVLTQPPSVSGAPGQRVTISCTGSSSNIGSGYDVHWYQQLPGTAPKLLIYGNSKRPSGVPDRFSGSKSGTSASLAITGLQSEDEADYYCSSWTPSSVVFGGGTKLTVL

IC50, inhibition of IL-17 production: 0.0141 µg/mL
B12: MOR05044 mAb (antibody, human IgG1, V domains shown)
VH: QVELVQSGAEVKKPGESLKISCKGSGYSFSNYWIGWVRQMPGKGLEWMGIISPSGSTTWYSPSFQGQVTISADKSISTAYLQWSSLKASDTAMYYCARWYYKPFDVWGQGTLVTVSS
VL: DIVLTQPPSVSGAPGQRVTISCTGSSSNIGSGYDVHWYQQLPGTAPKLLIYGNSKRPSGVPDRFSGSKSGTSASLAITGLQSEDEADYYCSSWTPSSVVFGGGTKLTVL

IC50, inhibition of IL-17 production: 0.00127 µg/mL
B13: MOR05042 mAb (antibody, human IgG1, V domains shown)
VH: QVELVQSGAEVKKPGESLKISCKGSGYSFSNYWIGWVRQMPGKGLEWMGIISPTGSSTWYSPSFQGQVTISADKSISTAYLQWSSLKASDTAMYYCARWYYKPFDVWGQGTLVTVSS
VL: DIVLTQPPSVSGAPGQRVTISCTGSSSNIGSGYDVHWYQQLPGTAPKLLIYGNSKRPSGVPDRFSGSKSGTSASLAITGLQSEDEADYYCSSWTPSSVVFGGGTKLTVL

IC50, inhibition of IL-17 production: 0.0014 µg/mL
B14: MOR05045 mAb (antibody, human IgG1, V domains shown)
VH: QVELVQSGAEVKKPGESLKISCKGSGYSFSNYWIGWVRQMPGKGLEWMGIISPTGSATWYSPSFQGQVTISADKSISTAYLQWSSLKASDTAMYYCARWYYKPFDVWGQGTLVTVSS
VL: DIVLTQPPSVSGAPGQRVTISCTGSSSNIGSGYDVHWYQQLPGTAPKLLIYGNSKRPSGVPDRFSGSKSGTSASLAITGLQSEDEADYYCSSWTPSSVVFGGGTKLTVL
